Experimental data reported in publication PMC9482650, “Quantitative fragmentomics allow affinity mapping of interactomes” (Nature Communications, 2022).
Blank lines part the entries; values can stand above or below the binder they belong to.

Tests used:
Test in all cases: holdup assay
Parameters in all cases: key: below the threshold = too weak to quantify, mostly under pKd 3.1 to 4
APBA1_2, Q02410 = target: T1, APBA1_2, Q02410
T1 sequence (Q02410 742-832, limits assumed, looked up): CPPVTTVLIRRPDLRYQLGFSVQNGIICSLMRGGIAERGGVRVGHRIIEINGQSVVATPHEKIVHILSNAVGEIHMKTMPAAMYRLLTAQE

DLG4_3, P78352 = target: DLG4_3, P78352
Chain of DLG4_3, P78352 (P78352 306-403): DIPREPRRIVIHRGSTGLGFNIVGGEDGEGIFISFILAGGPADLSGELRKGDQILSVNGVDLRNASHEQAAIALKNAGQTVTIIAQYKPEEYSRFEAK

DLG5_1, Q8TDM6 = target: DLG5_1, Q8TDM6
Chain of DLG5_1, Q8TDM6 (Q8TDM6 617-713): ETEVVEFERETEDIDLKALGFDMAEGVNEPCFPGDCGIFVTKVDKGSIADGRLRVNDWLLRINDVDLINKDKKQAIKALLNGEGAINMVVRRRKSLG

FRMPD2_2, Q68DX3 = target: FRMPD2_2, Q68DX3
Chain of FRMPD2_2, Q68DX3 (Q68DX3 944-1038): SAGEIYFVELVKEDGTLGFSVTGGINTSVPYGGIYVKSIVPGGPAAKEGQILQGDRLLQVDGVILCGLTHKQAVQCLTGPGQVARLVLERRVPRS

GRIP1_7, Q9Y3R0 = target: T2, GRIP1_7, Q9Y3R0
T2 sequence (Q9Y3R0 999-1096, limits assumed, looked up): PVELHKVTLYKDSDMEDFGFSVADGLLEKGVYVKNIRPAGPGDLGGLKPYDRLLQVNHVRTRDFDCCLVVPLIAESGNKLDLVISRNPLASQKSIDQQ

IL16_1, Q14005 = target: IL16_1, Q14005
Chain of IL16_1, Q14005 (Q14005 210-306): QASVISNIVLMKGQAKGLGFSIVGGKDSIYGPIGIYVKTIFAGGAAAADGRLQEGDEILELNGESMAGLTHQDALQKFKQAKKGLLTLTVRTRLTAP

Inadl_4, Q8NI35 = target: Inadl_4, Q8NI35
Chain of Inadl_4, Q8NI35 (Q8NI35 547-651): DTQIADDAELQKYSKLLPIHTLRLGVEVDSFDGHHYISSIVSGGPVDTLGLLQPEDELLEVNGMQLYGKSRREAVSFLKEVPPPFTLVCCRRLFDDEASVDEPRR

Inadl_6, Q8NI35 = target: Inadl_6, Q8NI35
Chain of Inadl_6, Q8NI35 (Q8NI35 1058-1167): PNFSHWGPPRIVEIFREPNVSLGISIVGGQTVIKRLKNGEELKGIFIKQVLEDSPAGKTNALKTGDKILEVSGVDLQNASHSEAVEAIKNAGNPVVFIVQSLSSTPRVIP

LIN7B, Q9HAP6 = target: T3, LIN7B, Q9HAP6
T3 sequence (Q9HAP6 88-185, limits assumed, looked up): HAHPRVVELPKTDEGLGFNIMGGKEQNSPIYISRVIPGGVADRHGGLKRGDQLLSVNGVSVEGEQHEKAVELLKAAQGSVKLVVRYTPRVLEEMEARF

LNX1_1, Q8TBB1 = target: LNX1_1, Q8TBB1
Chain of LNX1_1, Q8TBB1 (Q8TBB1 261-371): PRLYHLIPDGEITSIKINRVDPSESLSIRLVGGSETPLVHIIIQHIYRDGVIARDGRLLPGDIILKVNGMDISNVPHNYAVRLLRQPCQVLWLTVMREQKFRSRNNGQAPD

MAGI1_2, Q96QZ7 = target: MAGI1_2, Q96QZ7
Chain of MAGI1_2, Q96QZ7 (Q96QZ7 456-580): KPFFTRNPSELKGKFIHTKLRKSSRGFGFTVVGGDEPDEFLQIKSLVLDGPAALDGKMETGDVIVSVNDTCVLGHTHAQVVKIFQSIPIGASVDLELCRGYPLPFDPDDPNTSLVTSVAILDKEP

MAGI2_6, Q86UL8 = target: MAGI2_6, Q86UL8
Chain of MAGI2_6, Q86UL8 (Q86UL8 1141-1229): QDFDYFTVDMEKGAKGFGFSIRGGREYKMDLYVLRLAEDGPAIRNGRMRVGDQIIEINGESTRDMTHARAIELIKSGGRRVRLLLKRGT

MPDZ_10, O75970 = target: T4, MPDZ_10, O75970
T4 sequence (O75970 1624-1722, limits assumed, looked up): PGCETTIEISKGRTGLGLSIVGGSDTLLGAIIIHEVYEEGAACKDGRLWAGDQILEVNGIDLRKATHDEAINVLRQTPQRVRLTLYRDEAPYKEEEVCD

MPP2, Q14168 = target: T5, MPP2, Q14168
T5 sequence (Q14168 180-250, limits assumed, looked up): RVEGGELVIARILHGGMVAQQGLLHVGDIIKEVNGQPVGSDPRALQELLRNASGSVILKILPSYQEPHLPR

MPP7, Q5T2T1 = target: T6, MPP7, Q5T2T1
T6 sequence (Q5T2T1 134-230, limits assumed, looked up): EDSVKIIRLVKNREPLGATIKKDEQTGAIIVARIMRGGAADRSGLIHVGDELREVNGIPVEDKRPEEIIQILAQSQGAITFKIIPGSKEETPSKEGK

NHERF3_3, Q5T2W1 = target: T7, NHERF3_3, Q5T2W1
T7 sequence (Q5T2W1 238-333, limits assumed, looked up): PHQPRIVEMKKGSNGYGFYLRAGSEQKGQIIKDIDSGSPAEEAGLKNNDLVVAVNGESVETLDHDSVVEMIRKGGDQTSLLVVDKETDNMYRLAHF

NHERF4_1, Q86UT5-2 = target: NHERF4_1, Q86UT5-2
Chain of NHERF4_1, Q86UT5-2 (Q86UT5 other isoform, or with tags, fused parts or gaps): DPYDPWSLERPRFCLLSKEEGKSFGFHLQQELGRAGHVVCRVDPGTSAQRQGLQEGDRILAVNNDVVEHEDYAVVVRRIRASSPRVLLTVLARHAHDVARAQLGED

NHERF4_4, Q86UT5 = target: NHERF4_4, Q86UT5
Chain of NHERF4_4, Q86UT5 (Q86UT5 464-550): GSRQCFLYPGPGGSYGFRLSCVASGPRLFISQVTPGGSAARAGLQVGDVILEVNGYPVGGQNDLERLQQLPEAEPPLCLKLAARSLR

PICK1, Q9NRD5 = target: PICK1, Q9NRD5
Chain of PICK1, Q9NRD5 (Q9NRD5 17-115): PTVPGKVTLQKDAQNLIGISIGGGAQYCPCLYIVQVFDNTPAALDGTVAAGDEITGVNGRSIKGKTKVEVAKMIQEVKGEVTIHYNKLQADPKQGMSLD

PTPN13_1, Q12923 = target: T8, PTPN13_1, Q12923
T8 sequence (Q12923 1088-1188, limits assumed, looked up): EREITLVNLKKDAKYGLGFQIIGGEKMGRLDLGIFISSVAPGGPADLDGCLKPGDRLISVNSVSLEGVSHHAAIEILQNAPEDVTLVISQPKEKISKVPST

PTPN3, P26045 = target: PTPN3, P26045
Chain of PTPN3, P26045 (P26045 505-587): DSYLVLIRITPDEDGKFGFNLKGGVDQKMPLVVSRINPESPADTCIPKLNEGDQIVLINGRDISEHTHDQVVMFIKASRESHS

RAPGEF6, Q8TEU7 = target: T9, RAPGEF6, Q8TEU7
T9 sequence (Q8TEU7 525-625, limits assumed, looked up): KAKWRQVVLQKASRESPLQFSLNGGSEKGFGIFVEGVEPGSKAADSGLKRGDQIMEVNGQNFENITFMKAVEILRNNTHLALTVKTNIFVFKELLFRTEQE

SHANK1, Q9Y566 = target: T10, SHANK1, Q9Y566
T10 sequence (Q9Y566 658-767, limits assumed, looked up): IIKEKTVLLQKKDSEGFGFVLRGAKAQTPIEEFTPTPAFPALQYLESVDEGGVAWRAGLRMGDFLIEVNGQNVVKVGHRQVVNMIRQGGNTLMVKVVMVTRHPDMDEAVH

SNTA1, Q13424 = target: T11, SNTA1, Q13424
T11 sequence (Q13424 82-180, limits assumed, looked up): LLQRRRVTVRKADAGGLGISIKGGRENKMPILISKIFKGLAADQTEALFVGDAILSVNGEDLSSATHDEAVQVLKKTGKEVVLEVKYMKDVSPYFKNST

SNTG1, Q9NSN8 = target: T12, SNTG1, Q9NSN8
T12 sequence (Q9NSN8 52-150, limits assumed, looked up): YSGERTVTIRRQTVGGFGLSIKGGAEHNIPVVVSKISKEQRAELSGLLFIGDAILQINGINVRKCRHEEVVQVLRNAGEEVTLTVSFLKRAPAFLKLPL

SNX27, Q96L92 = target: SNX27, Q96L92
[1] = plain residues with an end cap or a label only (N-terminal biotin on a linker: ahx)
[2] = plain residues with an end cap or a label only (N-terminal biotin on a linker: ttds)

- pKd (APBA1_2, Q02410; [1]): 3.94
- pKd (DLG4_3, P78352; [1]): below the threshold
- pKd (DLG5_1, Q8TDM6; [1]): below the threshold
- pKd (FRMPD2_2, Q68DX3; [1]): 4.85
- pKd (GRIP1_7, Q9Y3R0; [1]): below the threshold
- pKd (IL16_1, Q14005; [1]): 4.23
- pKd (Inadl_4, Q8NI35; [1]): below the threshold
- pKd (Inadl_6, Q8NI35; [1]): 3.59
- pKd (LIN7B, Q9HAP6; [1]): below the threshold
- pKd (LNX1_1, Q8TBB1; [1]): below the threshold
- pKd (MAGI1_2, Q96QZ7; [1]): 3.83
- pKd (MAGI2_6, Q86UL8; [1]): 4.19
- pKd (MPDZ_10, O75970; [1]): below the threshold
- pKd (MPP2, Q14168; [1]): below the threshold
- pKd (MPP7, Q5T2T1; [1]): below the threshold
- pKd (NHERF3_3, Q5T2W1; [1]): below the threshold
- pKd (NHERF4_1, Q86UT5-2; [1]): below the threshold
- pKd (NHERF4_4, Q86UT5; [1]): below the threshold
- pKd (PICK1, Q9NRD5; [1]): below the threshold
- pKd (PTPN13_1, Q12923; [1]): below the threshold
- pKd (PTPN3, P26045; [1]): 4.3
- pKd (RAPGEF6, Q8TEU7; [1]): below the threshold
- pKd (SHANK1, Q9Y566; [1]): 3.88
- pKd (SNTA1, Q13424; [1]): 3.64
- pKd (SNTG1, Q9NSN8; [1]): 4.07
- pKd (SNX27, Q96L92; [1]): 5.07
Binder: ADENEQVSAV [RAPGEF6, Q8TEU7]

- pKd (APBA1_2, Q02410; [2]): 3.9
- pKd (DLG4_3, P78352; [2]): below the threshold
- pKd (DLG5_1, Q8TDM6; [2]): below the threshold
- pKd (FRMPD2_2, Q68DX3; [2]): 3.97
- pKd (GRIP1_7, Q9Y3R0; [2]): below the threshold
- pKd (IL16_1, Q14005; [2]): below the threshold
- pKd (Inadl_4, Q8NI35; [2]): below the threshold
- pKd (Inadl_6, Q8NI35; [2]): below the threshold
- pKd (LIN7B, Q9HAP6; [2]): below the threshold
- pKd (LNX1_1, Q8TBB1; [2]): below the threshold
- pKd (MAGI1_2, Q96QZ7; [2]): 3.93
- pKd (MAGI2_6, Q86UL8; [2]): 3.77
- pKd (MPDZ_10, O75970; [2]): below the threshold
- pKd (MPP2, Q14168; [2]): below the threshold
- pKd (MPP7, Q5T2T1; [2]): below the threshold
- pKd (NHERF3_3, Q5T2W1; [2]): below the threshold
- pKd (NHERF4_1, Q86UT5-2; [2]): below the threshold
- pKd (NHERF4_4, Q86UT5; [2]): below the threshold
- pKd (PICK1, Q9NRD5; [2]): below the threshold
- pKd (PTPN13_1, Q12923; [2]): below the threshold
- pKd (PTPN3, P26045; [2]): 4.12
- pKd (RAPGEF6, Q8TEU7; [2]): below the threshold
- pKd (SHANK1, Q9Y566; [2]): 3.63
- pKd (SNTA1, Q13424; [2]): 4.09
- pKd (SNTG1, Q9NSN8; [2]): 4.02
- pKd (SNX27, Q96L92; [2]): 4.53
Binder: FVETQHQTQV [FAT3, Q8TDW7]

- pKd (APBA1_2, Q02410; [1]): below the threshold
- pKd (DLG4_3, P78352; [1]): below the threshold
- pKd (DLG5_1, Q8TDM6; [1]): below the threshold
- pKd (FRMPD2_2, Q68DX3; [1]): below the threshold
- pKd (GRIP1_7, Q9Y3R0; [1]): below the threshold
- pKd (IL16_1, Q14005; [1]): below the threshold
- pKd (Inadl_4, Q8NI35; [1]): below the threshold
- pKd (Inadl_6, Q8NI35; [1]): below the threshold
- pKd (LIN7B, Q9HAP6; [1]): below the threshold
- pKd (LNX1_1, Q8TBB1; [1]): 3.67
- pKd (MAGI1_2, Q96QZ7; [1]): below the threshold
- pKd (MAGI2_6, Q86UL8; [1]): below the threshold
- pKd (MPDZ_10, O75970; [1]): 4
- pKd (MPP2, Q14168; [1]): below the threshold
- pKd (MPP7, Q5T2T1; [1]): below the threshold
- pKd (NHERF3_3, Q5T2W1; [1]): below the threshold
- pKd (NHERF4_1, Q86UT5-2; [1]): below the threshold
- pKd (NHERF4_4, Q86UT5; [1]): below the threshold
- pKd (PICK1, Q9NRD5; [1]): below the threshold
- pKd (PTPN13_1, Q12923; [1]): below the threshold
- pKd (PTPN3, P26045; [1]): below the threshold
- pKd (RAPGEF6, Q8TEU7; [1]): below the threshold
- pKd (SHANK1, Q9Y566; [1]): below the threshold
- pKd (SNTA1, Q13424; [1]): below the threshold
- pKd (SNTG1, Q9NSN8; [1]): below the threshold
- pKd (SNX27, Q96L92; [1]): below the threshold
Binder: SAPATLSSRA [PDLIM2, Q96JY6]

- pKd (APBA1_2, Q02410; [2]): 3.53
- pKd (DLG4_3, P78352; [2]): 4.92
- pKd (DLG5_1, Q8TDM6; [2]): below the threshold
- pKd (FRMPD2_2, Q68DX3; [2]): 3.67
- pKd (GRIP1_7, Q9Y3R0; [2]): below the threshold
- pKd (IL16_1, Q14005; [2]): below the threshold
- pKd (Inadl_4, Q8NI35; [2]): below the threshold
- pKd (Inadl_6, Q8NI35; [2]): 3.6
- pKd (LIN7B, Q9HAP6; [2]): 3.81
- pKd (LNX1_1, Q8TBB1; [2]): below the threshold
- pKd (MAGI1_2, Q96QZ7; [2]): 5.72
- pKd (MAGI2_6, Q86UL8; [2]): 3.54
- pKd (MPDZ_10, O75970; [2]): below the threshold
- pKd (MPP2, Q14168; [2]): below the threshold
- pKd (MPP7, Q5T2T1; [2]): below the threshold
- pKd (NHERF3_3, Q5T2W1; [2]): below the threshold
- pKd (NHERF4_1, Q86UT5-2; [2]): below the threshold
- pKd (NHERF4_4, Q86UT5; [2]): below the threshold
- pKd (PICK1, Q9NRD5; [2]): below the threshold
- pKd (PTPN13_1, Q12923; [2]): below the threshold
- pKd (PTPN3, P26045; [2]): 4.66
- pKd (RAPGEF6, Q8TEU7; [2]): below the threshold
- pKd (SHANK1, Q9Y566; [2]): below the threshold
- pKd (SNTA1, Q13424; [2]): 4.25
- pKd (SNTG1, Q9NSN8; [2]): 3.83
- pKd (SNX27, Q96L92; [2]): 4.33
Binder: SGGKRKETLV [NET1, Q7Z628]
